Results reported in PMC3312813 (Nature chemical biology, 2011).

System: live HeLa cells
Settings: 8 µM Flu-HBS 3, HeLa cells, 2.5 hours, fixed, Z-section fluorescence microscopy

CC[C@H](C)[C@H](NC(=O)CN1C/C=C/CCC(=O)N[C@@H](Cc2ccccc2)C(=O)N[C@@H](CCC(=O)O)C1=O)C(=O)N[C@@H](Cc1ccc(O)cc1)C(=O)N[C@@H](CCCNC(=N)N)C(=O)N[C@@H](CC(C)C)C(=O)N[C@@H](CCC(=O)O)C(=O)N[C@@H](CC(C)C)C(=O)N[C@@H](CC(C)C)C(=O)N[C@@H](CCCCN)C(=O)N[C@@H](C)C(=O)N[C@@H](CCC(=O)O)C(=O)N[C@@H](CCC(=O)O)C(=O)N[C@@H](C)C(=O)N[C@@H](CC(N)=O)C(=O)N[C@@H](CCCCNC(=O)c1ccc2c(c1)C(=O)OC21c2ccc(O)cc2Oc2cc(O)ccc21)C(N)=O [Flu-HBS 3]
Cellular uptake at 4 °C as compared to 37 °C: significantly reduced
